Consider one molecule from PMC2673439.

Where a chain is given by its changes, count along the chain named.

One series addresses T1, tvMyb1(35-141) (Trichomonas vaginalis, UniProt Q58HP2 35-141).
T1 sequence: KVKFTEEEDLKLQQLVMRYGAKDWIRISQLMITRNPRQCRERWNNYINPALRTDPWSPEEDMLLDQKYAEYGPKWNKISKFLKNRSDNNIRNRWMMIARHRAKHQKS
In words: SPR. A general note: In SPR one partner is held on a chip, and binding of the other changes the refractive index at the surface.

For another series, the target named is T2, tvMyb1(35-141) T67A (Trichomonas vaginalis, UniProt Q58HP2 35-141, T67A).
T2 sequence: T1 sequence with T33A
Nature of the series: SPR.

B1: MRE-1/MRE-2r 16-bp duplex, 5'-biotin (dsDNA)
DNA 1: AAGATAACGATATTTA
DNA 2: TAAATATCGTTATCTT
Turning to B1, the Kd in the series with tvMyb1(35-141) was found to be 1.24 nM. Further, in the series with tvMyb1(35-141) T67A, the binding result is “binds”.

For orientation: Kd means the concentration at which binding is half-saturated. A low value points to higher affinity.
